Target: native CTF cleaved from full-length rCav2.1 proteins
Assay: SDS-PAGE under mildly denaturing conditions with immunoblot

native CTF cleaved from full-length rCav2.1 proteins
stoichiometry N: 2

Source: paper PMC2841749
